Percent of desmin pelleted data for 1 substance are collected here from publication PMC5465037.

For this test, the target named is wild-type desmin, human (human) (UniProt P17661). The test can be described thus: co-sedimentation.

As for “wild-type desmin, human (from UniProt P17661 1-470) (natural protein)”, the percent of desmin pelleted at 22 °C is 83.8%, the percent of desmin pelleted at 37 °C was 93.3% and the percent of desmin pelleted at 44 °C worked out at 94.3%.
